Results: PMC5454105

Key:
[1] = target: WipA411 (WipA 33-411) (Legionella pneumophila) (UniProt Q5ZS02); experiment: SEC-MALS
[2] = target: WipA (IcmW-interacting protein A; lpg2718), full-length protein (Legionella pneumophila) (UniProt Q5ZS02); experiment: SEC-MALS

Substance: WipA411 (WipA 33-411) (from UniProt Q5ZS02 33-411) (domain or fragment)
- stoichiometry N [1]: 2

Substance: WipA (IcmW-interacting protein A; lpg2718), full-length protein (from UniProt Q5ZS02 1-520) (enzyme)
- stoichiometry N [2]: 2
